Measured values reported in the RNAGym collection of RNA variant scans (doi:10.7554/elife.90254).

B1: OR4K15 (parent)
chain: GUUAACGGUCAUAGGCCAUGGAAACUAGGAGCACCAUUUCGCUGCCAGUGAAGAAAUGAACAAAGAAAAUCUGGGCCAGGCAGGCAUCAAAAGAAAUAGUCUUGCGCUCAACCAGAAAGUCUGUAAUCAUUUUAAGGGUA

Variants of: B1
Assay: self-cleavage, relative activity (ratio to wild type); higher = more cleavage; in vitro, sequencing; the parent is a self-cleaving ribozyme

Variant	self-cleavage
A4G A86U	0.95
A4G A86G	0.72
C6U G106U	0.06
C6U A18G	0.91
U3C U70C	0.76
U3C A24G	0.9
U3C C32U	1.2
A4U U70C	0.89
U3C G7A	0.99
A4U U133C	1.79
A4U U57G	0.74
C6A U9C	1.47
C6U A96G	1.1
U3C A129G	1.14
A4G A56U	0.65
A4G G20A	0.82
A5G G44A	0.86
U3C U12C	1.24
A5C A66U	0.83
A4G U133A	1.25
A4G U133C	1.3

Variant	self-cleavage
A5U A56U	1.15
A5U A56G	1.76
C6A A60G	0.5
C6U A68G	0.79
A4G G50U	1.39
C6U A62G	0.56
A5G U9A	1.38
C6U A67G	1.39
U3G A140G	1.39
A5G A30G	1.03
U3C U103A	0.64
A5G A33U	1.01
A5G A33G	0.67
A5G A33C	1.28
A5G C35U	1.59
A5G A117G	1.51
A4G A111G	0.1
A5U U87A	1.2
A4U U120C	0.54
A5G A95G	1.27
A5G A62U	1.09

Variant	self-cleavage
A5U U26C	0.57
A5G C40U	1.31
A5G A22U	1.01
A5G A22G	0.81
C6A U49G	0.61
A5G A135U	1.26
A5U A63G	1.2
A5G A69G	1.54
A4G A47C	0.42
A4C C81U	0.79
A5G U100C	1.11
C6U A78U	0.25
C6U A78G	0.4
A5U U43A	2.16
A5U A95G	1.59
U3C A23C	1.42
C6U C45A	1.31
A5G U39A	1.16
A5G U39C	1.32
A4G A114G	0.76
U3C U57A	0.88

Variant	self-cleavage
U3C U57C	1.28
A4G A60G	1.27
A5C U57C	0.75
A4G A126G	1.09
U3C A98G	0.6
U3C A98C	1.18
A4U A96G	1.05
A5G U70A	0.75
U3C U120C	1.42
U3C U120A	1.72
A5G U120A	1.77
A5G U120C	0.86
A5U A47G	1
A5G A23G	0.8
A4G A23G	1.09
A5U A117G	1.74
U3C U97C	1.12
A5U A126G	1.07
U3G A110U	1.67
C6A A33U	1.06
